Results published in the nanobody polyreactivity screen of Harvey et al. (2022).

Assay: yeast display, Sf9 membrane polyspecificity reagent, FACS + sequencing; frameworks hold sequencing errors
Outline: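 After 36–48 hours of galactose induction, yeast (Saccharomyces cerevisiae BJ5465) displaying a synthetic nanobody library were stained at 4 °C for 1 hour with 10% biotinylated, detergent-solubilized Sf9 membrane reagent. Streptavidin microbeads enriched the stained cells before FACS sorting into low and high (top ~1%) gates on anti-HA and streptavidin fluorescence. Each clone's polyreactivity label reflects its gate of origin.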

Sequence	polyreactivity (PSR sort gate)
QVQLVDSGGGLVQAGGSLRLSCAASGGIFYHNAMGWYRQAPGKERELVAAISGRGGRTYYADSVKGRFTISRDNAKNTVYLQMNSLKPEDTAVYYCYADQYKDFDYWGQGTQVTVSS	low polyreactivity
QVQLVESGGGLVQAGGSLRLSCAASGSTFAYNAMGWYRQAPGKERELVAAISWGDGITYYADSVKGRFTISRDNAKNTVYLQMNSLKPEDTEVITRDFGYWGQGTQVTVSS	low polyreactivity
QVQLVESGGGLVQAGGSLRLSCAASGRTFTSYAMGWYRQAPGKERELVAAISQGGGRTYYADSVKGRFTISRDNAKNTVYLQMNSLKPEDTAVYYCNARSLYPWRWKKEYGHWGQGTQVTVSS	high polyreactivity
QVQLVESGGGLVQAGGSLRLSCAASGRTFLRYARGWYRQAPGKERELVAAISWSGGRTYYADSVKGRFTISRDNAKNTVYLQMNSLKPEDTAVYYCNKVVLYGAHYYYWGQGTQVTVSS	high polyreactivity
QVQLVESGGGLVQAGGSLRLSCAASGSILKSNAMGGSRQAPGKARELVAANSSSGDSTYYADSVKGRFTISRDNAKNTVYLQMHSLKPADTAVYSCAARLRGRTRTGYYWGQGTQVTVSS	high polyreactivity
QVQLVESGGGLVQAGGSLRLSCAASGRIFGKYVMGWYRQAPGKERELVAGISWSAGSTYYADSVKGRYTISRDNAKYTVYLQMNSLKPEDTAVYYCAAGLEGGYDYWGQGTQVTVSS	low polyreactivity
QVQLVESGGCLVQAGGSLRLSCAASGNTFPYYDMGWYRQAPGKERELVAVIRTGDDTNYADSVKGRFTISRDNAKNTVYLQMNSLKPEDTAVYYCAVVGPKGADGLPPYNRMDYWGHGTQVTVSS	low polyreactivity
QVQLVESGGGLVQAGGSLRLSCAASGRTFTDNAMGWYRQAPGKERELVAAISRRGGSTYYADSVKGRFTISRDNAKNTVYLQMNSLKPEDTAVYYCARASRDIRPYDYWGQGTQVTVSS	high polyreactivity
QVQLVESGGGLVQAGGSLRLSCAASGRILYPYAMGWYRQAPGKERELVAAISSRSANTYYADSVKGRFTISRDNAKNTVYLQMNSLKPEDTAVYYCAARSLGLGFGHWGQGTQVTVSS	high polyreactivity
QVQLVESGGGLVQAGGSLRLSCAASGRTFLWNDMGWYRQAPGKERELVAAITGSDGTYADSVKGRFTISRDNAKNTVYLQMNSLKPEDTAVYYCAAVYSYQNEGYDYWGQGTQVTVSS	low polyreactivity
QVQLVESGGGLVQAGGSLRLSCAASGRIFDYAMGWYRQAPGKERELVAAISGSGGSTYYADSVKGRFTISRDNAKNTVYLQMNSLKPEDTAVYYCSTSGPQYYSRNFDYWGQGTQVTVSS	low polyreactivity
QVQLVESGGGLVQAGGSLRLSCAASGGTFRRYAMGWYRQAPGKEREFVAAITISGGNTYYADSVKGRFTISRDNAKNTVYLQMNSLKPEDTAVYYCAKDHIRKQPEGRRMDYWGQGTQVTVSS	low polyreactivity
QVQLVESGGGLVQAGGSLRLSCAASGRIFDPYTMGWYRQAPGKERELVAAISGRTGRTYYADSVKGRFTISRDNAKNTVYLQMNSLKPEDTAVYYCNAVRYVVLPGGPKFDYWGQGTQVTVSS	high polyreactivity
QVQLVESGGGLVQAGGSLRLTCAASGYTFWLNGMGWYRHAPGKERELVAAISSSGGSTYYADSVKGRFTISRDNAKNTVYLQMNSLKPEDTAVYDCAVDAYWRHWYYPYESHHDYWGQGTQVTVST	low polyreactivity
QVQLVESGGGLVQAGGSLRLSCAASGRIFWTYAMGWYSQAPGKERELVASITWSGGSTYYADSVKGRFTISRDNAKNTFYLQMNSLKPEDTAVYYCKTDVLAPYDSGYWGQGTQVTVSS	low polyreactivity
QVQLVESGGGLVQAGGSLRLSCAASGSTSSTYSMGWYRQAPGKERELVATINWDGASTYYADSVKGRFTISRDNAKNTVYLQMNSLIPEDTAVYYCAAQSGAVHFLEDDYWGHGTQVTVSS	low polyreactivity
QVQLVESGGCLVQAGGSLRLSCAASGRTFAWYAMGWYRQAPGKERELVAAISSGGSTYYADSVKGRFTISRDNAKNTVYLQMDSLKPEDTAVYYCAAEWHYIYAYDYWGQGTQVTVSS	low polyreactivity
QVQLVESGGGLVQAGGSLRLSCAASGSTIYDNAMGWYRQATGKESELVAAITWSVGRTYYADSVKGRFTISRDNAKNTVYLQMNSMKPEDTAVYYCAARSQDRTYFQVFVSDTPYNYWGQGTQVTVSS	low polyreactivity
QGQLVESGGGLVQAGVSLRLTCAASGSTFLTNSMGWYRQAPGKEREFVAAISRTGGSTYYADSVKGRFTISRDNAKNTVYLQMNSLKPEDTAVYYCAVYPYGRWLNYWGQGTQVTVSS	high polyreactivity
QVQLVESGGGLVQAGGSLRLSCAASGITLAIYAMGWYRQAPGKERELVAAISSSGASTYYADSVKGRFTISRDNAKNTVYILMNSLKPEDTAVYYCAAAYGGSSYEYNYWGQGTQVTVSS	low polyreactivity
QVQLVESGGGLVQAGRSLRVSCAASGRIFIWNAMGWYRQAPGNERELVAAISWSGGSTYYADSVKGRFTISRDNAKNTVYLQINSLKPEDTAVYYCAARDVRPYYVKPPVRYYYWGQGTQVTVSS	high polyreactivity
QVQLVESGGGLVQAGRSLRLSCAASGRSFKYYPMGWYRQAPGKERELVARISRSSGNTYYADSVKGRFTISRDTAKNTVYLQMNSLKAEDTAVYFCATVPHYNGFNYWGQGTQVTVSS	high polyreactivity

Sequence	polyreactivity (PSR sort gate)
QVQLEDSGGGLVQAGGSLRLSCAASGRIFGKYAMGWYRQAPGKERELVAAISYSGGRTYYADSVKGRFTISRDNAKNTVYLQMNSLTPEDTAVYYCAAVYHGINSYDYDYSGQGTQVTVSS	high polyreactivity
QVQLVESGGGLVQAGGSLRLSCAASGRTFHSYAMGWYRQAPGKERELVAVITRRGGSTYYADSVKGRFTISRDNAKNTVYLQMNSLKPEDTAVYYCNKGKSYTYDYWGQGTQVTVSS	high polyreactivity
QVQLVESGGGLVQAGGSLRLSCAASGRIFGPYAMGWYRQAPGKERELVASISYSGGSTYYADSVKGRFTISRDNAKNTVYLQMNSLKPEDTAVYYCAKGGYWRGYNYYYWGQGTQVTVSS	low polyreactivity
QVQLVESGGGLVQAGGSLRLSCAASGTFYLYAMGWYRQAPGKERELVARINSSGSTNLRRLCEGALHNFTRQCEEYRLFTDEQPETGRYRVYYCNADTKRSSREYDYWGQGTQVTVSS	low polyreactivity
QVQLVGSGGGLVQAGSSLRLTCAASGLIFTYYAMGWYRQAPGKEREFVAVIDSSGDSTNYADSVKGRFTISRDNAKNTVYLQMNSLKPEDTAVYYCNAYNWSYIYFPFVQEYRTYDYWGQGTQVTVSS	low polyreactivity
QVQLVESGGGLVQAGGSLRLSCAASGRIFDYNAMGWYRQAPGKERELVAAITSAGGTNYADSVKGRFTISRDNAKNTVYLQMNSLKPEDTAVYDCAADGSGYYDWYYYWGQGTQVTVSS	low polyreactivity
QVQLVESGGGLVQAGGSLRLSCAASGFTFRFYAMGWYRQAPGKETELVAAISSSGSRTYYADSVKGRFTISRDTAKNTVYFQMHSLKPEDTAVYYCNTVTSQDRYDYWGQGTHVTVSS	high polyreactivity
QVQLVESGGGLVQAGGSLRLSCAASGFTYYWNAMGWYRQAPGKERELVAAINWRGTSTYYADSVKGRFTISRDNAKNTVYLQMNSLKPEDTAVYYCNTYGYVEYDWGQGTQVTVSS	high polyreactivity
QVQLVESGGGLVQAGGSLRLSCAASGSTFIAYAMGWYRQAPGKERELVAAITKSGGRTYYADSVKGRFTISRDNAKNTVYLQMNSLKPEDTAVYYCAKLVPVYSHPYAYDYWGQGTQVTVSS	high polyreactivity
QVQLVESGGGLVQAGGSLRLSCAAYGSTFGGNARGWYIQAPGKERELVAVISKRGGSTYYADSVKGRFTISRDYEKNTVYLQINSLKPEDTAVYYCAATYSRYWSPTYDYWGQGTQVTVSS	high polyreactivity
QVQLVESGGGLVQAGGSLRLSCAASGNTFYYYAMGWYRQAPGKERELVASITSTARTYYADSVKGRFTISRDNAKNTVYLQMNSLKPEDTAVYYCNAKEHYATRSDSWGEGTQVTVSS	high polyreactivity
QVQLVESGGGLVQAGGSLRLSCAASGRNLYYYAMGWYRQAPGKERELVAAITSGGSTYADSVKGRFTISRDNAKNTVYLQMNSLKPEDTAVYYCNARPVYGSRFYSAVRMEYWGQGTQVTVSS	low polyreactivity
QVQLVESGGGLVQAGGSLRLSCAASGSIIAYNAMGWYRQAPGKERELVAAISYSGDGTYYADSVKGRFTISRDNANNTVYLQMNSLKPEDTAVYFCDTQIYPLVFYQGDWNDYWGQGTQVTVSS	low polyreactivity
QVQLVESGGGLVQAGGSLRLSCAASGRIFPYYAMGWSRQAPGKERELVAAISLSGGSTYYADSVKGRFTISRDNAKNTVYLQMNSLKPEDTAVYYCNAVASTYGYYWYPGLGYDYWGQGTQVTVSS	low polyreactivity
QVQLVESGGGLVQAGGSLRLSCAASGRTFRWYAMGWYRQAPGKERELVADISSVGSTDYADSVKGRFTISRDNAKNTVYLQMNSLKPEDTAVYYCAADFSPRRYHNRSFGYWGQGTQVTVSS	low polyreactivity
QLQLVESGGGLVQAGGSLRLSCAASGLTFYHYAMGWYRQAPGKERELVAAISTSGGSTYYADSVKGRFTVSRDNAKNTVYLQMNSLKPEDTAVYYCATERTYRYDFWGQGTQVTVSS	high polyreactivity
QVQLVESGGGLVQAGGSLRLSCAASGYTFIHNAMGWYRQAPGKERELVAAINRSGAITNYADSVKGRFTISRDNAKNTVYLQMNSLKPEDTAVYYCNADVDPLPPRYLHREVLKEYNYWGQGTQVTVSS	low polyreactivity
QVQLVESGGGLVQAGGSLRLSCAASGSIFNINAMGWYRQAPGKERELVATITSGGTASYADSVKGRFTISRDNAKNTVYLQMNSLKPEDTAVYDCNAEMYPIVKAGRQHPRRYDYWGQGTQVTVSS	low polyreactivity
QVQLVESGGGLVQAGGSLRLSCAASGSTFAIYAMGWYRQAPGKERELVAAINSGGSTNYADSVKGRFTISRDNAKNTVYLQMNSLKPEDTAVYYCNTDAWHETPVSGYSWGQGTQVTVSS	low polyreactivity
QVQLVESGGGLVQAGGSLRISCAASGRIFDYYAMGWYRQAPGKERELVAAISYSGGSTHYADSVKGRFTISRDNAKNTVYLQMNSLKPEDTAVYYCAGWAWSGVEYDYWGQGTQVTVSS	low polyreactivity
QDQLVESGGGLVQAGGSLRLICAASGSTLPRYTMGWYRQAPGKERELVAAISFSGSSTYYADSVKGRFTISRDNAKNTVYLQMNSLKPEDTAVYYCRYGYNYWGQGTQVTVSS	high polyreactivity
